B1: Histone-lysine N-methyltransferase 2A, residues 1148 to 1194; numbered along this chain, Q03164 (parent)
chain: KGRRSRRCGQCPGCQVPEDCGVCTNCLDKPKFGGRNIKKQCCKMRKC

Variants of: B1
Test: abundance fitness (aPCA) (normalised: wild type 0, dead -1); higher = more abundant; growth selection in yeast, the domain comes from the species named
Conditions: Homo sapiens

Abundance fitness: each site, then its substitutions
F32: C -0.286 | E 0.186 | S -0.185 | W -0.337 | I -0.641 | D 0.01 | Y -0.068 | L -0.327 | N -0.228 | A -0.013 | T -0.272 | R -0.496 | K -0.39 | H -0.091 | Q -0.09 | P -0.257
D28: R -0.618 | G -0.461 | A -0.475 | P -0.937 | S -0.626 | T -1.09 | N -0.326 | F -0.856 | M -0.761 | H -1 | L -0.921 | W -1.05 | Y -0.657 | C -0.868 | E -0.502 | Q -0.509 | I -0.628 | V -0.374 | K -0.752
N36: D 0.134 | G -0.091 | L -0.651 | K -0.63 | F -0.694 | H -0.076 | R -0.672 | S -0.523 | I -0.952 | Y -0.569 | M -0.274 | E 0.003 | W -0.595 | T -0.731 | C -0.344 | A -0.339 | P -0.62 | Q 0.151 | V -0.814
K29: M -0.408 | N -0.55 | P -0.58 | L -0.671 | V -0.51 | D -0.411 | E -0.519 | Y -0.564 | W -0.686 | Q -0.427 | S -0.416 | T -0.397 | H -0.618 | R -0.368 | G -0.463 | F -0.648
L27: H -0.34 | F -0.353 | Y -0.334 | R -0.35 | G -0.583 | D -0.419 | E -0.129 | V -0.539 | Q -0.064 | N -0.518 | K -0.293 | W -0.554 | P -0.799 | S -0.554
I37: C 0.095 | E 0.274 | D 0.265 | A -0.025
K31: A -0.195 | P -0.227 | W -0.685 | F -0.627 | I -0.24 | Y -0.253 | T -0.264 | Q -0.285 | M -0.444 | N -0.159 | R -0.311 | G -0.319 | S -0.404 | E -0.271 | H -0.429 | L -0.316
P30: Q -0.381 | L -0.361 | V -0.594 | G -0.213 | F -0.705 | N 0.057 | Y -0.712 | T -0.312 | R -0.432 | K -0.669 | W -0.711 | H -0.26 | I -0.256 | S -0.303 | D -0.77 | A -0.187 | E 0.109
G34: T -0.316 | W -0.906 | Y -0.774 | C -0.32 | F -0.409 | A -0.463 | E -0.133 | R -0.52 | V -0.453 | D -0.236 | H -1.07 | S -0.288 | I -0.787 | P -0.448 | K -0.478
G33: K -0.936 | L -0.631 | Y -0.613 | V -0.418 | F -1.04 | M -0.494 | R -0.783 | N -0.289 | T -0.526 | P -0.707 | A -0.394 | W -0.853 | Q -0.535 | C -0.677
R35: K 0.19 | H 0.128 | T -0.016 | G 0.022 | P 0.075 | M 0.143 | V -0.089 | W -0.524 | C -0.229 | A 0.189 | D 0.168 | N 0.343 | F -0.043 | S -0.01 | Q 0.065 | I -0.438 | Y -0.036
